# Assay results: article PMC3078058 (Nature, 2011)
# B1: CusB membrane fusion protein (natural protein, Escherichia coli, UniProt P77239 29-407, looked up)
# chain: EPPAEKTSTAERKILFWYDPMYPNTRFDKPGKSPFMDMDLVPKYADEESSASGVRIDPTQTQNLGVKTATVTRGPLTFAQSFPANVSYNEYQYAIVQARAAGFIDKVYPLTVGDKVQKGTPLLDLTIPDWVEAQSEYLLLRETGGTATQTEGILERLRLAGMPEADIRRLIATQKIQTRFTLKAPIDGVITAFDLRAGMNIAKDNVVAKIQGMDPVWVTAAIPESIAWLVKDASQFTLTVPARPDKTLTIRKWTLLPGVDAATRTLQLRLEVDNADEALKPGMNAWLQLNTASEPMLLIPSQALIDTGSEQRVITVDADGRFVPKRVAVFQASQGVTALRSGLAEGEKVVSSGLFLIDSEANISGALERMRSESATHAH
# B2: CusA inner membrane RND efflux pump (natural protein, Escherichia coli, UniProt P38054 1-1047, looked up)
# chain: MIEWIIRRSVANRFLVLMGALFLSIWGTWTIINTPVDALPDLSDVQVIIKTSYPGQAPQIVENQVTYPLTTTMLSVPGAKTVRGFSQFGDSYVYVIFEDGTDPYWARSRVLEYLNQVQGKLPAGVSAELGPDATGVGWIYEYALVDRSGKHDLADLRSLQDWFLKYELKTIPDVAEVASVGGVVKEYQVVIDPQRLAQYGISLAEVKSALDASNQEAGGSSIELAEAEYMVRASGYLQTLDDFNHIVLKASENGVPVYLRDVAKVQIGPEMRRGIAELNGEGEVAGGVVILRSGKNAREVIAAVKDKLETLKSSLPEGVEIVTTYDRSQLIDRAIDNLSGKLLEEFIVVAVVCALFLWHVRSALVAIISLPLGLCIAFIVMHFQGLNANIMSLGGIAIAVGAMVDAAIVMIENAHKRLEEWQHQHPDATLDNKTRWQVITDASVEVGPALFISLLIITLSFIPIFTLEGQEGRLFGPLAFTKTYAMAGAALLAIVVIPILMGYWIRGKIPPESSNPLNRFLIRVYHPLLLKVLHWPKTTLLVAALSVLTVLWPLNKVGGEFLPQINEGDLLYMPSTLPGISAAEAASMLQKTDKLIMSVPEVARVFGKTGKAETATDSAPLEMVETTIQLKPQEQWRPGMTMDKIIEELDNTVRLPGLANLWVPPIRNRIDMLSTGIKSPIGIKVSGTVLADIDAMAEQIEEVARTVPGVASALAERLEGGRYINVEINREKAARYGMTVADVQLFVTSAVGGAMVGETVEGIARYPINLRYPQSWRDSPQALRQLPILTPMKQQITLADVADIKVSTGPSMLKTENARPTSWIYIDARDRDMVSVVHDLQKAIAEKVQLKPGTSVAFSGQFELLERANHKLKLMVPMTLMIIFVLLYLAFRRVGEALLIISSVPFALVGGIWLLWWMGFHLSVATGTGFIALAGVAAEFGVVMLMYLRHAIEAVPSLNNPQTFSEQKLDEALYHGAVLRVRPKAMTVAVIIAGLLPILWGTGAGSEVMSRIAAPMIGGMITAPLLSLFIIPAAYKLMWLHRHRVRK
# Legend:
# crystal structure = biological target: the molecule itself; experiment: crystal structure
# [1] = biological target: B2; experiment: ITC
Binder,stoichiometry N (crystal structure),Kd [1] [µM]
B1,6,5.1 ± 0.3
B2,3,–
